Measured values: patent US20240092842A1

Molecular target: PME crude extract of Arabidopsis thaliana stem (Arabidopsis thaliana)
Assay: cell-based or functional assay

PME enzyme activity in the reaction solution (pectin / bromothymol blue, OD 620 nm) at PME:GhPMEI39 1:2: 24%
Substance: recombinant GhPMEI39 protein (pColdTF-GhPMEI39 fusion protein with 6xHis-Tag, expressed in Escherichia coli BL21 (DE3))
